Measured values taken from paper PMC11087256, “Interferon-induced transmembrane protein-1 competitively blocks Ephrin receptor A2-mediated Epstein–Barr virus entry into epithelial cells” (Nature Microbiology, 2024).
Where “and” joins values, the source holds several entries; their conditions need not be identical. Equal values may be shown once.

Key:
GST-EphA2 [1] = target: T1, GST-EphA2 (UniProt P29317 24-976); assay: ELISA; 200 ng GST-EphA2 coated on 96-well plates overnight at 4 °C, blocked with 5% BSA in PBS; gradient concentrations of 6×His proteins, 2 h at room temperature; anti-His or anti-GST antibody, HRP secondary, absorbance at 450 nm; details: both partners purified
T1 construct: EphA2; The methods name both pGEX6p-1-GST/His and pET28a as the vector; also called glutathione S-transferase (GST)-EphA2

GST-EphA2 [2] = target: T1, GST-EphA2; assay: ELISA; as the ELISA on GST-EphA2-coated plates, gH/gL or gB incubated in the presence of IFITM1 (concentration of IFITM1 not stated); details: both partners purified

B1: 6×His-gB (natural protein)
chain: AQTPEQPAPPATTVQPTATRQQTSFPFRVCELSSHGDLFRFSSDIQCPSFGTRENHTEGLLMVFKDNIIPYSFKVRSYTKIVTNILIYNGWYADSVTNRHEEKFSVDSYETDQMDTIYQCYNAVKMTKDGLTRVYVDRDGVNITVNLKPTGGLANGVRRYASQTELYDAPGWLIWTYRTRTTVNCLITDMMAKSNSPFDFFVTTTGQTVEMSPFYDGKNKETFHERADSFHVRTNYKIVDYDNRGTNPQGERRAFLDKGTYTLSWKLENRTAYCPLQHWQTFDSTIATETGKSIHFVTDEGTSSFVTNTTVGIELPDAFKCIEEQVNKTMHEKYEAVQDRYTKGQEAITYFITSGGLLLAWLPLTPRSLATVKNLTELTTPTSSPPSSPSPPAPSAARGSTPAAVLRRRRRDAGNATTPVPPTAPGKSLGTLNNPATVQIQFAYDSLRRQINRMLGDLARAWCLEQKRQNMVLRELTKINPTTVMSSIYGKAVAAKRLGDVISVSQCVPVNQATVTLRKSMRVPGSETMCYSRPLVSFSFINDTKTYEGQLGTDNEIFLTKKMTEVCQATSQYYFQSGNEIHVYNDYHHFKTIELDGIATLQTFISLNTSLIENIDFASLELYSRDEQRASNVFDLEGIFREYNFQAQNIAGLRKDLDNAVSNGRNQFVDGLGELMDSLGSVGQSITNLVSTVGGLFSSLVSGFISFFKNPFGGMLILVLVAGVVILVISLTRRTRQMSQQPVQMLYPGIDELAQQHASGEGPGINPISKTELQAIMLALHEQNQEQKRAAQRAAGPSVASRALQAARDRFPGLRRRRYHDPETAAALLGEAETEF
EC50 (GST-EphA2 [1]): 41.7 nM and 39.6 nM
EC50 with IFITM1 (GST-EphA2 [2]): 84.3 nM
